Assay [1] deals with T1, recombinant human Tau isoform containing 2 N-terminal inserts and 4 microtubule binding repeats (Tau42) (human, UniProt P10636-8 1-441).
T1 construct: also called purified Tau; source: recombinant, isolated as described previously [25], purified
In words: affinity chromatography; CX3CR1 peptide coupled to CNBr-activated Sepharose 4B; protein (1 mg/ml) loaded in buffer A (0.1 M Mes pH 6.4, 0.5 mM MgCl2, 2 mM EGTA); bound protein eluted with 0.5 M NaCl in buffer A; fractions read by dot immunoblot. The settings on record: both partners purified.

For assay [2], the target named is T2, Tau42 phosphorylated by GSK-3β (phospho-Tau) (human, UniProt P10636-8 1-441, phosphorylated by GSK-3β; phosphoserine at 396 (detected with anti-p-S396); other sites not stated).
T2 construct: the Cy5-labelled form (phospho-Tau-Cy5) was used for the uptake test on microglia; also called Tau phosphorylated by GSK-3β; source: recombinant Tau42 phosphorylated in vitro by GSK-3β (Sigma), heated 5 min at 100 °C, supernatant collected
The description is as above. To be noted: both partners purified.

T1 sequence (P10636 other isoform, or with tags, fused parts or gaps): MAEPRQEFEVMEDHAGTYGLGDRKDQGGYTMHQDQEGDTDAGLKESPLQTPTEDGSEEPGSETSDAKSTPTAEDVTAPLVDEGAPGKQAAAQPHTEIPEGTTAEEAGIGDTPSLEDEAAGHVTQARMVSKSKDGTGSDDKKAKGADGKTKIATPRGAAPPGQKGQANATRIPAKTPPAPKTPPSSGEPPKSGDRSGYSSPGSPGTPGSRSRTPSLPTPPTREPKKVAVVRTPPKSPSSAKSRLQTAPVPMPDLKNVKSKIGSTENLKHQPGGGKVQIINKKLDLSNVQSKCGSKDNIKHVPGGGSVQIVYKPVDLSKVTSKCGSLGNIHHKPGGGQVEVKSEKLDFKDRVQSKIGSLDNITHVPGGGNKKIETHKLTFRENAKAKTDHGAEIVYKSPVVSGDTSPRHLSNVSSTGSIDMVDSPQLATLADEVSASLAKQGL
T2 sequence (P10636 other isoform, or with tags, fused parts or gaps): as above

B1: synthetic CX3CR1 peptide (aa 2-21) containing the binding region to CX3CL1 (peptide)
peptide: DQFPESVTENFEYDDLAEAC
notes: also called synthetic receptor CX3CR1; source: synthetic peptide, bought: Abyntek
For the molecule B1, the binding result in assay [1] and in assay [2] was “binds” each time.

For the origin of these results see PMC5558740, “Absence of CX3CR1 impairs the internalization of Tau by microglia” (Molecular Neurodegeneration, 2017).
